In patent US20120058906A1:

Key:
[1] = target: rHuman P-Cadherin/Fc Chimera, CF (R&D Systems Cat#861-PC) (human) (UniProt P22223); assay: MSD ECL multi-spot assay, antigen spotted on plate, Fab 1.57 uM; blank spot 797
[2] = target: rHuman ErbB2/Fc Chimera, CF (R&D Systems Cat#1129-ER) (human) (UniProt P04626); assay: ECL (MSD Multi-Spot) binding, antigen spotted on plate; Fab 25 nM
[3] = target: rHuman EGF R/Fc Chimera, CF (R&D Systems Cat#344-ER) (human) (UniProt P00533); assay: as above
[4] = target: rHuman HGF R/c-MET/Fc Chimera, CF (R&D Systems Cat#358-MT/CF) (human) (UniProt P08581); assay: as above
[5] = target: rHuman ErbB2/Fc Chimera, CF (R&D Systems Cat#1129-ER) (human) (UniProt P04626); assay: ECL (MSD Multi-Spot) binding, antigen spotted on plate; Fab 1.25 nM
[6] = target: rHuman EGF R/Fc Chimera, CF (R&D Systems Cat#344-ER) (human) (UniProt P00533); assay: as above
[7] = target: rHuman HGF R/c-MET/Fc Chimera, CF (R&D Systems Cat#358-MT/CF) (human) (UniProt P08581); assay: as above
[8] = target: rHuman ErbB2/Fc Chimera, CF (R&D Systems Cat#1129-ER) (human) (UniProt P04626); assay: ECL (MSD Multi-Spot) binding, antigen spotted on plate; Fab 500 nM
[9] = target: rHuman EGF R/Fc Chimera, CF (R&D Systems Cat#344-ER) (human) (UniProt P00533); assay: as above
[10] = target: rHuman HGF R/c-MET/Fc Chimera, CF (R&D Systems Cat#358-MT/CF) (human) (UniProt P08581); assay: as above
[11] = target: rHuman ErbB2/Fc Chimera, CF (R&D Systems Cat#1129-ER) (human) (UniProt P04626); assay: ECL (MSD Multi-Spot) binding, antigen spotted on plate; Fab 0.0625 nM
[12] = target: rHuman EGF R/Fc Chimera, CF (R&D Systems Cat#344-ER) (human) (UniProt P00533); assay: as above
[13] = target: rHuman HGF R/c-MET/Fc Chimera, CF (R&D Systems Cat#358-MT/CF) (human) (UniProt P08581); assay: as above

Row | ECL signal [1] | ECL signal [2] | ECL signal [3] | ECL signal [4] | ECL signal [5] | ECL signal [6] | ECL signal [7] | ECL signal [8] | ECL signal [9] | ECL signal [10] | ECL signal [11] | ECL signal [12] | ECL signal [13] | Binder
1 | 2030 | – | – | – | – | – | – | – | – | – | – | – | – | Fab VH1-46_IGHD3-10*01_IGHJ4*01 & O1_IGKJ1*01 (Fab, V domains shown) VH: QVQLVQSGAEVKKPGASVKVSCKASGYTFTSYYMHWVRQAPGQGLEWMGIINPSGGSTSYAQKFQGRVTMTRDTSTSTVYMELSSLRSEDTAVYYCAREYYYGSGSYYNDYFDYWGQGTLVTVSS VL: DIVMTQTPLSLPVTPGEPASISCRSSQSLLDSDDGNTYLDWYLQKPGQSPQLLIYTLSYRASGVPDRFSGSGSGTDFTLKISRVEAEDVGVYYCMQRIEFPSWTFGQGTKVEIK
2 | – | 927 | 821 | 805 | 695 | 729 | 774 | 957 | 1110 | 1300 | 692 | 736 | 643 | Fab VH5-51_IGHD5-18*01>3_IGHJ4*01_G100K_G104T & V3-4_IGLJ1*01 (Fab, V domains shown) VH: EVQLVQSGAEVKKPGESLKISCKGSGYSFTSYWIGWVRQMPGKGLEWMGIIYPGDSDTRYSPSFQGQVTISADKSISTAYLQWSSLKASDTAMYYCARRKYSYTYDYFDYWGQGTLVTVSS VL: QTVVTQEPSFSVSPGGTVTLTCGLSSGSVSTSYYPSWYQQTPGQAPRTLIYSTNTRSSGVPDRFSGSILGNKAALTITGAQADDESDYYCVLYMGSGISYVFGTGTKVTVL
